Experiments:
Experiment in all cases: yeast 2-hybrid, β-galactosidase reporter; percent of wild type β-catenin
[1] = target: conductin amino acids Ala342-Arg465 fused to Lex-A (vector BTM 116) (UniProt P0A7C2)
[2] = target: human APC amino acids Ser1259-Asp1400 (APC 20 amino acid repeats) fused to Lex-A (vector BTM 116) (human)
[3] = target: E-cadherin amino acids Gln773-Asp884 (cytoplasmatic domain) fused to Lex-A (vector BTM 116) (UniProt P0A7C2 1-202; P09803 773-884)
Experimental: (§1) 4. Preparation and testing of mutants of β-catenin modulating the interaction with LEF-1, APC, conductin or E-cadherin The mutagenesis of β-catenin in the armadillo repeats 3–8 was carried out by means of the "mutagenesis kit" of the company Clontech according to the producer's record and the mutants were checked by sequencing (FIG. 5). In all mutants the original amino acid was substituted by alanine. For analyzing the interactions the cDNA of human β-catenin (armadillo repeat 3 up to the C-terminal end of the protein) coding for the amino acids Leu218–Leu7 µl or its mutants was cloned into the fusion vector for the activation domain of Gal-4 (pGAD424, Clontech). The cDNA for the binding domains of the interaction partners was cloned into the Lex-A fusion vector BTM 116. To this end, the cDNA of LEF-1 for the amino acids 1–99, conductin for the amino acids Ala342–ARG465; of human APC for the amino acids His1012–Glu1215 (APC 15 amino acid repeats) and for the amino acids Ser1259Asp 1400 (APC 20 amino acid repeats) and E-cadherin for the amino acids Gin773–Asp884 (cytoplasmatic domain) were amplified with the respective primers PCR. The interaction of the Lex-A hybrids with β-catenin and its mutants was quantified by means of the β-galactosidase reporter activity in the yeast 2-hybrid system (report: "Matchmaker". Clontech) (Tab. 2 and FIG. 6).

[4] = target: T1, LEF-1 amino acids 1-99 fused to Lex-A (vector BTM 116) (UniProt P0A7C2 1-202; P27782 1-99)
T1 construct: Order of the fusion follows the vector; also called LEF-1/TCF-4
Experimental: as §1

[5] = target: human APC amino acids His1012-Glu1215 (APC 15 amino acid repeats) fused to Lex-A (vector BTM 116) (human)

Binder	share of the interaction with wild type β-catenin in percent [1] [%]	share of the interaction with wild type β-catenin in percent [2] [%]	share of the interaction with wild type β-catenin in percent [3] [%]	share of the interaction with wild type β-catenin in percent [4] [%]	share of the interaction with wild type β-catenin in percent [5] [%]
human β-catenin (Leu218-Leu781) mutant Arg 274 to alanine, Gal-4 activation domain fusion (other, not shown: large carriers; small tags and cut ends) LHNLSHHREGLLAIFKSGGIPALVKMLGSPVDSVLFYAITTLHNLLLHQEGAKMAVALAGGLQKMVALLNKTNVKFLAITTDCLQILAYGNQESKLIILASGGPQALVNIMRTYTYEKLLWTTSRVLKVLSVCSSNKPAIVEAGGMQALGLHLTDPSQRLVQNCLWTLRNLSDAATKQEGMEGLLGTLVQLLGSDDINVVTCAAGILSNLTCNNYKNKMMVCQVGGIEALVRTVLRAGDREDITEPAICALRHLTSRHQEAEMAQNAVRLHYGLPVVVKLLHPPSHWPLIKATVGLIRNLALCPANHAPLREQGAIPRLVQLLVRAHQDTQRRTSMGGTQQQFVEGVRMEEIVEGCTGALHILARDVHNRIVIRGLNTIPLFVQLLYSPIENIQRVAAGVLCELAQDKEAAEAIEAEGATAPLTELLHSRNEGVATYAAAVLFRMSEDKPQDYKKRLSVELTSSLFRTEPMAWNETADLGLDIGAQGEPLGYRQDDPSYRSFHSGGYGQDALGMDPMMEHEMGGHHPGADYPVDGLPDLGHAQDLMDGLPPGDSNQLAWFDTDL	29	40	50		
human β-catenin (Leu218-Leu781) mutant Arg 342 to alanine, Gal-4 activation domain fusion (other, not shown: large carriers; small tags and cut ends) LHNLSHHREGLLAIFKSGGIPALVKMLGSPVDSVLFYAITTLHNLLLHQEGAKMAVRLAGGLQKMVALLNKTNVKFLAITTDCLQILAYGNQESKLIILASGGPQALVNIMRTYTYEKLLWTTSAVLKVLSVCSSNKPAIVEAGGMQALGLHLTDPSQRLVQNCLWTLRNLSDAATKQEGMEGLLGTLVQLLGSDDINVVTCAAGILSNLTCNNYKNKMMVCQVGGIEALVRTVLRAGDREDITEPAICALRHLTSRHQEAEMAQNAVRLHYGLPVVVKLLHPPSHWPLIKATVGLIRNLALCPANHAPLREQGAIPRLVQLLVRAHQDTQRRTSMGGTQQQFVEGVRMEEIVEGCTGALHILARDVHNRIVIRGLNTIPLFVQLLYSPIENIQRVAAGVLCELAQDKEAAEAIEAEGATAPLTELLHSRNEGVATYAAAVLFRMSEDKPQDYKKRLSVELTSSLFRTEPMAWNETADLGLDIGAQGEPLGYRQDDPSYRSFHSGGYGQDALGMDPMMEHEMGGHHPGADYPVDGLPDLGHAQDLMDGLPPGDSNQLAWFDTDL	20	29	41		
human β-catenin (Leu218-Leu781) mutant His 260 to alanine, Gal-4 activation domain fusion (other, not shown: large carriers; small tags and cut ends) LHNLSHHREGLLAIFKSGGIPALVKMLGSPVDSVLFYAITTLANLLLHQEGAKMAVRLAGGLQKMVALLNKTNVKFLAITTDCLQILAYGNQESKLIILASGGPQALVNIMRTYTYEKLLWTTSRVLKVLSVCSSNKPAIVEAGGMQALGLHLTDPSQRLVQNCLWTLRNLSDAATKQEGMEGLLGTLVQLLGSDDINVVTCAAGILSNLTCNNYKNKMMVCQVGGIEALVRTVLRAGDREDITEPAICALRHLTSRHQEAEMAQNAVRLHYGLPVVVKLLHPPSHWPLIKATVGLIRNLALCPANHAPLREQGAIPRLVQLLVRAHQDTQRRTSMGGTQQQFVEGVRMEEIVEGCTGALHILARDVHNRIVIRGLNTIPLFVQLLYSPIENIQRVAAGVLCELAQDKEAAEAIEAEGATAPLTELLHSRNEGVATYAAAVLFRMSEDKPQDYKKRLSVELTSSLFRTEPMAWNETADLGLDIGAQGEPLGYRQDDPSYRSFHSGGYGQDALGMDPMMEHEMGGHHPGADYPVDGLPDLGHAQDLMDGLPPGDSNQLAWFDTDL	10	40	100	50	100
human β-catenin (Leu218-Leu781) mutant Arg 469 to alanine, Gal-4 activation domain fusion (other, not shown: large carriers; small tags and cut ends) LHNLSHHREGLLAIFKSGGIPALVKMLGSPVDSVLFYAITTLHNLLLHQEGAKMAVRLAGGLQKMVALLNKTNVKFLAITTDCLQILAYGNQESKLIILASGGPQALVNIMRTYTYEKLLWTTSRVLKVLSVCSSNKPAIVEAGGMQALGLHLTDPSQRLVQNCLWTLRNLSDAATKQEGMEGLLGTLVQLLGSDDINVVTCAAGILSNLTCNNYKNKMMVCQVGGIEALVRTVLRAGDREDITEPAICALAHLTSRHQEAEMAQNAVRLHYGLPVVVKLLHPPSHWPLIKATVGLIRNLALCPANHAPLREQGAIPRLVQLLVRAHQDTQRRTSMGGTQQQFVEGVRMEEIVEGCTGALHILARDVHNRIVIRGLNTIPLFVQLLYSPIENIQRVAAGVLCELAQDKEAAEAIEAEGATAPLTELLHSRNEGVATYAAAVLFRMSEDKPQDYKKRLSVELTSSLFRTEPMAWNETADLGLDIGAQGEPLGYRQDDPSYRSFHSGGYGQDALGMDPMMEHEMGGHHPGADYPVDGLPDLGHAQDLMDGLPPGDSNQLAWFDTDL			50	17	
human β-catenin (Leu218-Leu781) mutant His 470 to alanine, Gal-4 activation domain fusion (other, not shown: large carriers; small tags and cut ends) LHNLSHHREGLLAIFKSGGIPALVKMLGSPVDSVLFYAITTLHNLLLHQEGAKMAVRLAGGLQKMVALLNKTNVKFLAITTDCLQILAYGNQESKLIILASGGPQALVNIMRTYTYEKLLWTTSRVLKVLSVCSSNKPAIVEAGGMQALGLHLTDPSQRLVQNCLWTLRNLSDAATKQEGMEGLLGTLVQLLGSDDINVVTCAAGILSNLTCNNYKNKMMVCQVGGIEALVRTVLRAGDREDITEPAICALRALTSRHQEAEMAQNAVRLHYGLPVVVKLLHPPSHWPLIKATVGLIRNLALCPANHAPLREQGAIPRLVQLLVRAHQDTQRRTSMGGTQQQFVEGVRMEEIVEGCTGALHILARDVHNRIVIRGLNTIPLFVQLLYSPIENIQRVAAGVLCELAQDKEAAEAIEAEGATAPLTELLHSRNEGVATYAAAVLFRMSEDKPQDYKKRLSVELTSSLFRTEPMAWNETADLGLDIGAQGEPLGYRQDDPSYRSFHSGGYGQDALGMDPMMEHEMGGHHPGADYPVDGLPDLGHAQDLMDGLPPGDSNQLAWFDTDL		47		2	60

Further lines, results first:

share of the interaction with wild type β-catenin in percent [1] [%]	share of the interaction with wild type β-catenin in percent [2] [%]	share of the interaction with wild type β-catenin in percent [3] [%]	share of the interaction with wild type β-catenin in percent [4] [%]	share of the interaction with wild type β-catenin in percent [5] [%]	Binder
22		27	38		human β-catenin (Leu218-Leu781) mutant Lys 345 to alanine, Gal-4 activation domain fusion (other, not shown: large carriers; small tags and cut ends) LHNLSHHREGLLAIFKSGGIPALVKMLGSPVDSVLFYAITTLHNLLLHQEGAKMAVRLAGGLQKMVALLNKTNVKFLAITTDCLQILAYGNQESKLIILASGGPQALVNIMRTYTYEKLLWTTSRVLAVLSVCSSNKPAIVEAGGMQALGLHLTDPSQRLVQNCLWTLRNLSDAATKQEGMEGLLGTLVQLLGSDDINVVTCAAGILSNLTCNNYKNKMMVCQVGGIEALVRTVLRAGDREDITEPAICALRHLTSRHQEAEMAQNAVRLHYGLPVVVKLLHPPSHWPLIKATVGLIRNLALCPANHAPLREQGAIPRLVQLLVRAHQDTQRRTSMGGTQQQFVEGVRMEEIVEGCTGALHILARDVHNRIVIRGLNTIPLFVQLLYSPIENIQRVAAGVLCELAQDKEAAEAIEAEGATAPLTELLHSRNEGVATYAAAVLFRMSEDKPQDYKKRLSVELTSSLFRTEPMAWNETADLGLDIGAQGEPLGYRQDDPSYRSFHSGGYGQDALGMDPMMEHEMGGHHPGADYPVDGLPDLGHAQDLMDGLPPGDSNQLAWFDTDL
43		40	38	54	human β-catenin (Leu218-Leu781) mutant Lys 354 to alanine, Gal-4 activation domain fusion (other, not shown: large carriers; small tags and cut ends) LHNLSHHREGLLAIFKSGGIPALVKMLGSPVDSVLFYAITTLHNLLLHQEGAKMAVRLAGGLQKMVALLNKTNVKFLAITTDCLQILAYGNQESKLIILASGGPQALVNIMRTYTYEKLLWTTSRVLKVLSVCSSNAPAIVEAGGMQALGLHLTDPSQRLVQNCLWTLRNLSDAATKQEGMEGLLGTLVQLLGSDDINVVTCAAGILSNLTCNNYKNKMMVCQVGGIEALVRTVLRAGDREDITEPAICALRHLTSRHQEAEMAQNAVRLHYGLPVVVKLLHPPSHWPLIKATVGLIRNLALCPANHAPLREQGAIPRLVQLLVRAHQDTQRRTSMGGTQQQFVEGVRMEEIVEGCTGALHILARDVHNRIVIRGLNTIPLFVQLLYSPIENIQRVAAGVLCELAQDKEAAEAIEAEGATAPLTELLHSRNEGVATYAAAVLFRMSEDKPQDYKKRLSVELTSSLFRTEPMAWNETADLGLDIGAQGEPLGYRQDDPSYRSFHSGGYGQDALGMDPMMEHEMGGHHPGADYPVDGLPDLGHAQDLMDGLPPGDSNQLAWFDTDL
